Test results: PMC3766608, “Thermal Stability of Glucokinases in Thermoanaerobacter tengcongensis” (BioMed Research International, 2013)

Columns and labels:
Format in all cases: biochemical, Caldanaerobacter subterraneus
[1] = substrate: Nc1ncnc2c1ncn2[C@@H]1O[C@H](COP(=O)(O)OP(=O)(O)OP(=O)(O)O)[C@@H](O)[C@H]1O; test: purified protein; conditions: glucose as co-substrate, Mg2+, Tris-HCl pH 8.0, 75 °C
[2] = substrate: Nc1ncnc2c1ncn2[C@@H]1O[C@H](COP(=O)(O)OP(=O)(O)O)[C@@H](O)[C@H]1O; test: purified protein; conditions: glucose as co-substrate, Mg2+, Tris-HCl (pH optimum 8.0, T opt 80 °C)
[3] = substrate: Nc1ncnc2c1ncn2[C@@H]1O[C@H](COP(=O)(O)OP(=O)(O)OP(=O)(O)O)[C@@H](O)[C@H]1O; test: coupled enzyme assay; conditions: Mg2+, Tris-HCl, sugar co-substrate not stated for this constant (pH optimum 7.5, T opt 70 °C)
Description: coupled enzyme assay on TTE2418 (glu/man-NacK)

B1: TTE0090 (ATP-GLK) (Caldanaerobacter subterraneus subsp. tengcongensis MB4) (protein)
chain: MKKFLCGVDLGGTKISTGIVDENGNIIKSIKIPTMAEKGPDVVIERIEESIYQVLKDTGLEMSNLKGIGIGSPGPLNAKKGIVISPPNLPHWSNVPIVEILSKRLGIEVRLENDANAAAIGEHLFGSGRGVDNFVYITVSTGIGGGVIIEGKLYSGENSNAAEIGHHTINFDGPRCNCGNYGCFEAYASGTAIARFAREGIEKGIKTKIKELAGEGEVKAEHVFEAAKLGDEFAKELVEKEAFYLGVGIANIMAFYNPRKIAIGGGVSAQWDMLYEKMMETVRKKALKPNAEVCEVVKAQLGENIGVLGAAALLL
notes: recombinant, His-tagged
Km [1]: 2600 µM
Vmax [1]: 100/ND

B2: TTE1961 (ADP-GLK) (Caldanaerobacter subterraneus subsp. tengcongensis MB4) (protein)
chain: MRIGVDLGGTNIAVGLVEEDGKIIATGSRPTKPERGYEAIARDIAELSFELLQRMGISVKDVKSMGIGVPGVADNEKGIVIRAVNLFWTKVPLAKEIRKYIDLPIYMENDANVAALAEATFGAGRGSKSSVTITLGTGVGSGFILDGKIYSGAHHFAPEIGHMVIGDNGIRCNCGKIGCFETYASATALIREGKKAAKRNPNTLILKFANGDIEGITAKNVIDAAKQYDEEALKIFEEYVKYLAVGIVNIINLFDPEVIILGGGVANAGDFLLKPLKKEVAENILFKELPYADIRKAELGNDAGIIGAAILS
notes: recombinant, His-tagged
Km [2]: 900 µM

B3: TTE2418 (glu/man-NacK) (Caldanaerobacter subterraneus subsp. tengcongensis MB4) (protein)
chain: MKVIGVDIGGTKILGGLIDERGNLLEETLVYTKAHLGREKILENLFIAIDKLIDKDVKGIGIGSAGRINFKEGIVEYATDNLPGWTGCNLKQLLEDRYKIPVIADNDVNAAVIGEIWQGAGRGYKDIVMIAIGTGVGGAIVYNGEVIRGGSWSAGEIGHMILYPKGRQCNCGQRGCLEQYVSGTAIARTYSEVSKEKKIAGAEEVFLLAEKGDKMALEIVNDFVNSLSIAILSLKNLLDPEIFIIGGGVIGAKRVWWDKLKKTLENRASITPAQLENKATMVGAAKLIIDYLSKNN
notes: recombinant
Km [3]: 1900 µM
Vmax [3]: 51/ND
